Experimental findings from PMC8883962 are described below.

For assay [1], the target named is Staphylococcal Protein A (SpA) (Staphylococcus aureus) (UniProt P38507). Briefly: BLI.
Assay [2] addresses Streptococcal Protein G (SpG) (groups C and G of Streptococcal bacteria) (UniProt P06654). Briefly: BLI.

“Pertuzumab Vκ5–VH3 IgG1 (from UniProt P01857)”: the results for the Kd in assay [1] and in assay [2] were 0.94 nM and 0.34 nM, respectively. For “Pertuzumab Vκ6–VH4 IgG1 (from UniProt P01857)” the same measures were 0.81 nM and 0.27 nM. Turning to “Trastuzumab Vκ2–VH6 IgG1 (from UniProt P01857)”, in assay [1], the Kd amounted to 1.79 nM. That is a single-digit nanomolar value.

For the substance “Trastuzumab Vκ6–VH4 IgG1 (from UniProt P01857)”, the Kd in assay [2] was 0.36 nM. Consider “Pertuzumab Vκ2–VH5 IgG1 (from UniProt P01857)”, for which the Kd in assay [1] was 1.62 nM; in assay [2] it was 0.3 nM. For the substance “Pertuzumab Vκ6–VH7 IgG1 (from UniProt P01857)”, the results for the Kd in assay [1] and in assay [2] were 0.98 nM and 0.28 nM, respectively. For “Trastuzumab Vκ6–VH6 IgG1 (from UniProt P01857)”, in that order: 1.78 nM and 0.51 nM.

As for “Trastuzumab Vκ2–VH2 IgG1 (from UniProt P01857)”, the Kd in assay [1] is 1.46 nM; in assay [2] it was 0.69 nM. For “Trastuzumab Vκ2–VH4 IgG1 (from UniProt P01857)”, in that order: 1.29 nM and 0.28 nM.

Take “Pertuzumab Vκ6–VH1 IgG1 (from UniProt P01857)”: the Kd in assay [1] amounted to 0.94 nM; in assay [2] it was 0.29 nM. Consider “Pertuzumab Vκ2–VH6 IgG1 (from UniProt P01857)”, for which the values for the Kd in assay [1] and in assay [2] were 1.55 nM and 0.32 nM, respectively. For “Trastuzumab Vκ6–VH7 IgG1 (from UniProt P01857)”, in that order: 0.6 nM and 0.3 nM.

As for “Trastuzumab Vκ6–VH1 IgG1 (from UniProt P01857)”, the Kd in assay [2] is 0.32 nM. Still for that read-out and setting: with “Trastuzumab Vκ5–VH3 IgG1 (from UniProt P01857)” the figure was 0.32 nM.

Take “Trastuzumab Vκ2–VH1 IgG1 (from UniProt P01857)”: the Kd in assay [2] amounted to 0.39 nM. As for “Trastuzumab Vκ6–VH5 IgG1 (from UniProt P01857)”, the Kd in assay [1] stood at 0.84 nM. In the case of “Pertuzumab Vκ5–VH7 IgG1 (from UniProt P01857)”, the Kd in assay [2] came to 0.32 nM. Turning to “Pertuzumab Vκ6–VH5 IgG1 (from UniProt P01857)”, the Kd in assay [1] turned out to be 1.26 nM; in assay [2], 0.26 nM.

For “Trastuzumab Vκ2–VH3 IgG1 (from UniProt P01857)”, the Kd is 0.24 nM in assay [1] and 0.29 nM in assay [2]. Take “Trastuzumab Vκ2–VH7 IgG1 (from UniProt P01857)”: the Kd in assay [1] turned out to be 0.53 nM; in assay [2] it was 0.23 nM.

Regarding “Trastuzumab Vκ6–VH3 IgG1 (from UniProt P01857)”, the Kd in assay [1] was determined as 0.31 nM; in assay [2] it was 0.27 nM.

With “Trastuzumab Vκ2–VH5 IgG1 (from UniProt P01857)”, the Kd in assay [1] amounted to 1.11 nM; in assay [2], 0.27 nM.

Consider “Pertuzumab Vκ6–VH3 IgG1 (from UniProt P01857)”, for which the figures for the Kd in assay [1] and in assay [2] were 0.41 nM and 0.28 nM, respectively.

“Pertuzumab Vκ2–VH7 IgG1 (from UniProt P01857)”: in assay [2], the Kd is 0.36 nM. As to “Pertuzumab Vκ2–VH3 IgG1 (from UniProt P01857)”, the Kd stood at 0.76 nM in assay [1] and 0.38 nM in assay [2]. On to “Pertuzumab Vκ6–VH2 IgG1 (from UniProt P01857)”, for which the figures for the Kd in assay [1] and in assay [2] were 0.79 nM and 0.31 nM, respectively.

Consider “Pertuzumab Vκ2–VH4 IgG1 (from UniProt P01857)”, for which the Kd in assay [1] stood at 1.57 nM; in assay [2], 0.25 nM. For “Pertuzumab Vκ2–VH2 IgG1 (from UniProt P01857)”, in that order: 1.82 nM and 0.36 nM.
